Test results taken from patent US20240000885A1 (VANDERBILT UNIVERSITY, published 2024).

Key:
[1] = target: MHV M tail with truncation of 40 carboxyl-terminal amino acids (mouse hepatitis coronavirus strain A59, UniProt P04386 1-147); assay: binary yeast 2-hybrid
[2] = target: MHV M cytoplasmic tail (amino acids 105-228), GAL4-BD fusion (mouse hepatitis coronavirus strain A59, UniProt P04386 1-147); assay: binary yeast 2-hybrid

Binder	binding result [1]	binding result [2]
pAD-MYO5B(ABCDE) (other, also called MYO5B ABCDE exons; construct containing just the ABCDE exons) GSPDSYSLLLNQLKLAHEELEVRKEEVLILRTQIVSADQRRLAGRNAEPNINARSSWPNSEKHVDQEDAIEAYHGVCQTNSKTEDWGYLNEDGELGLAYQGLKQVARLLEAQLQAQSLEHEEEVEHLKAQLEALKEEMDKQQQTFCQTLLLSPEAQVEFGVQQEISRLTNENLDLKELVEKLEKNERKLKKQLKIYMKKAQDLEA	no binding	
pAD-MYO5B(ABCE) (other) GSPDSYSLLLNQLKLAHEELEVRKEEVLILRTQIVSADQRRLAGRNAEPNINARSSWPNSEKHVDQEDAIEAYHGVCQTNRLLEAQLQAQSLEHEEEVEHLKAQLEALKEEMDKQQQTFCQTLLLSPEAQVEFGVQQEISRLTNENLDLKELVEKLEKNERKLKKQLKIYMKKAQDLEA		no binding
